Results published in patent US20240209065A1 (SINGLOMICS BEIJING DANXU BIOPHARMACEUTICALS, published 2024).

B1: DXP-604 monomeric IgA1 (antibody)
heavy: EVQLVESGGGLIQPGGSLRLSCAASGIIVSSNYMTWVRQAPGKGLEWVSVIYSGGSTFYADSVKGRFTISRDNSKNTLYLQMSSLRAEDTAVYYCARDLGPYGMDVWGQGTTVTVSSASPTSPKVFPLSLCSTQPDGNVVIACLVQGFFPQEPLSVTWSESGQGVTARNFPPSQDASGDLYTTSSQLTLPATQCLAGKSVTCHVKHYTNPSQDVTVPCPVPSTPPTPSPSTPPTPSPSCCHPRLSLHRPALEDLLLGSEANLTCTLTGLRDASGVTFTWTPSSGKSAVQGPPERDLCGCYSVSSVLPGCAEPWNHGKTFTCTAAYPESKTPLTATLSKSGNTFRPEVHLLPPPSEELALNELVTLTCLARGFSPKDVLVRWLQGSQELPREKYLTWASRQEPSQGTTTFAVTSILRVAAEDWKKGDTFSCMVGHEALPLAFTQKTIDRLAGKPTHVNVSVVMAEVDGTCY
light: DIQLTQSPSFLSASVGDRVTITCRASQGISSDLAWYQQKPGKAPNLLIYAASTLQSGVPSRFSGSGSGTEFTLTISSLQPEDFATYYCQQLNSDLYTFGQGTKLEIKRTVAAPSVFIFPPSDEQLKSGTASVVCLLNNFYPREAKVQWKVDNALQSGNSQESVTEQDSKDSTYSLSSTLTLSKADYEKHKVYACEVTHQGLSSPVTKSFNRGEC
B2: DXP-604 dimeric IgA1 (antibody)
heavy: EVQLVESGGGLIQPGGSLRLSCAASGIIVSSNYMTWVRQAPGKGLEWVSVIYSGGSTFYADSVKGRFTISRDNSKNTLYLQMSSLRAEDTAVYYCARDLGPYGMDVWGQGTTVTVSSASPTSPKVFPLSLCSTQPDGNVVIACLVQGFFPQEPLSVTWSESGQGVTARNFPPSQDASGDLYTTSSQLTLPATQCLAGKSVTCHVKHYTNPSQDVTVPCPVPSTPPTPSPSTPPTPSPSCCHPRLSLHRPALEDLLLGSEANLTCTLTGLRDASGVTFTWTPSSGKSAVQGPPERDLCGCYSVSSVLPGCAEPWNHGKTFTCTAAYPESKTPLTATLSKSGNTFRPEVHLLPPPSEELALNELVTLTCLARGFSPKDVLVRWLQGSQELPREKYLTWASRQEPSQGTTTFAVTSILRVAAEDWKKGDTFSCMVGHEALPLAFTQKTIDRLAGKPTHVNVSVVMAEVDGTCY
light: B1 light
chain: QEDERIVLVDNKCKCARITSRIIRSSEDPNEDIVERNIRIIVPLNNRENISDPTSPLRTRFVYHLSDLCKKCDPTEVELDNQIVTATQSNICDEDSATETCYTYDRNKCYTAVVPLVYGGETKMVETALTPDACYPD
B3: DXP-604 secretory IgA1 (antibody)
heavy: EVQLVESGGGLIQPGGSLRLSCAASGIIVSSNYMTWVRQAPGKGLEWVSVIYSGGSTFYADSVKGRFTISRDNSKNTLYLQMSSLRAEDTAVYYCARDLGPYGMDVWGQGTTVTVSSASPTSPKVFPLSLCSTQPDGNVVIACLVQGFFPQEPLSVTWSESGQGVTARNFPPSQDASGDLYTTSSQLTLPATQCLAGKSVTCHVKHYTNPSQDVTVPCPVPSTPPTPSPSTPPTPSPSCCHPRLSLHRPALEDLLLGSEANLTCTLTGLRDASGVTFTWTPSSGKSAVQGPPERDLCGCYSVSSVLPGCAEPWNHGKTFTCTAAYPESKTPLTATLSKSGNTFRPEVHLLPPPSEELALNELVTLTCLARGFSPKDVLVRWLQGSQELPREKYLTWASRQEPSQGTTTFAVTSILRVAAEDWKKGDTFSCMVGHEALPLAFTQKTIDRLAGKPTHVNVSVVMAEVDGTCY
light: B1 light
chain 1: not shown
chain 2: not shown

What was measured:
Experiment in all cases: cell-based or functional assay
[1] = target: S protein of authentic SARS-CoV-2 Omicron BA.2 virus (SARS-CoV-2, UniProt P0DTC2 14-1273)
[2] = target: S protein of authentic SARS-CoV-2 Omicron BA.1 virus (SARS-CoV-2, UniProt P0DTC2 14-1273)
[3] = target: S protein of authentic SARS-CoV-2 Omicron BA.5 virus (SARS-CoV-2, UniProt P0DTC2 14-1273)
[4] = target: S protein (SΔ19) of Omicron BQ.1 pseudovirus (SARS-CoV-2, UniProt P0DTC2 14-1254)
[5] = target: S protein (SΔ19) of Omicron BQ.1.1 pseudovirus (SARS-CoV-2, UniProt P0DTC2 14-1254)

Binder	IC50, microneutralization assay with authentic virus [1] [nM]	fold increase of neutralization activity over parental IgG, authentic virus [1] [fold]	IC50, microneutralization assay with authentic virus [2] [nM]	fold increase of neutralization activity over parental IgG, authentic virus [2] [fold]	IC50, microneutralization assay with authentic virus [3] [nM]	fold increase of neutralization activity over parental IgG, authentic virus [3] [fold]	IC50, pseudovirus assay (HIV platform) [4] [nM]	fold increase of neutralizing activity compared to IgG, pseudovirus [4] [fold]	fold more potent in neutralizing than IgG, authentic virus [3] [fold]	IC50, pseudovirus assay (HIV platform) [5] [nM]	fold increase of neutralizing activity compared to IgG, pseudovirus [5] [fold]
B1	0.16	17	3.43	6.7	0.35	35.5	–	–	–	–	–
B2	0.06	–	0.38	–	0.13	–	3.2	2.6	92	4.88	1.8
B3	0.03	–	0.44	–	0.09	–	1.41	6	–	1.59	5.5
